Where a chain is given by its changes, count along the chain named. In names and notes the source's numbering stands. A value given as a limit tells only on which side of the number the result lay.

This note sets out measurements from patent US20030207435A1.

The labels stand for the following.
B1: wild-type human activated protein C, P04070 43-197; P04070 212-461 (enzyme)
light: ANSFLEELRHSSLERECIEEICDFEEAKEIFQNVDDTLAFWSKHVDGDQCLVLPLEHPCASLCCGHGTCIDGIGSFSCDCRSGWEGRFCQREVSFLNCSLDNGGCTHYCLEEVGWRRCSCAPGYKLGDDLLQCHPAVKFPCGRPWKRMEKKRSHL
heavy: LIDGKMTRRGDSPWQVVLLDSKKKLACGAVLIHPSWVLTAAHCMDESKKLLVRLGEYDLRRWEKWELDLDIKEVFVHPNYSKSTTDNDIALLHLAQPATLSQTIVPICLPDSGLAERELNQAGQETLVTGWGYHSSREKEAKRNRTFVLNFIKIPVVPHNECSEVMSNMVSENMLCAGILGDRQDACEGDSGGPMVASFHGTWFLVGLVSWGEGCGLLHNYGVYTKVSRYLDWIHGHIRDKEAPQKSWAP
modifications: here or on the partner: Asn-linked carbohydrate at three sites; vitamin K-dependent gamma-carboxylation of nine glutamic acid residues within the amino-terminal 45 residues (gla-domain); one erythro-beta-hydroxy-Asp; Asn-linked carbohydrate
B2: activated human protein C derivative S11G:Q32E:N33D:L194S, P04070 43-197; P04070 212-461 (enzyme)
light: B1 light with S11G, Q32E, N33D
heavy: B1 heavy with L25S
modifications: here or on the partner: Asn-linked oligosaccharides; gamma-carboxy-glutamates in the gla-domain; one erythro-beta-hydroxy-Asp; Asn-linked oligosaccharide
B3: activated human protein C derivative H10Q:S11G:Q32E:N33D:L194S:T254S, P04070 43-197; P04070 212-461 (enzyme)
light: B1 light with H10Q, S11G, Q32E, N33D
heavy: B1 heavy with L25S, T85S
modifications: here or on the partner: Asn-linked oligosaccharides; gamma-carboxy-glutamates in the gla-domain; one erythro-beta-hydroxy-Asp; Asn-linked oligosaccharide
B4: activated human protein C derivative S11G:Q32E:N33D:L194S:T254S, P04070 43-197; P04070 212-461 (enzyme)
light: B1 light with S11G, Q32E, N33D
heavy: B1 heavy with L25S, T85S
modifications: here or on the partner: Asn-linked oligosaccharides; gamma-carboxy-glutamates in the gla-domain; one erythro-beta-hydroxy-Asp; Asn-linked oligosaccharide
B5: activated human protein C derivative H10Q:S11G:Q32E:N33D:L194S, P04070 43-197; P04070 212-461 (enzyme)
light: B1 light with H10Q, S11G, Q32E, N33D
heavy: B1 heavy with L25S
modifications: here or on the partner: Asn-linked oligosaccharides; gamma-carboxy-glutamates in the gla-domain; one erythro-beta-hydroxy-Asp; Asn-linked oligosaccharide

For one assay, the target named is serpins of normal human plasma. Description: cell-based or functional assay.
The molecule B1 yielded an Inactivation in Plasma (t1/2 Relative to wt), Human (x (relative to wt)) of 1.
On the same count and under the same terms, then B2, with 5.8.
Same read-out and setting: with B3 the figure was 8.5.
The molecule B4 had an Inactivation in Plasma (t1/2 Relative to wt), Human (x (relative to wt)) of 13.
Still for that read-out and setting: with B5 the figure was 5.9.

For the next assay, the target named is serpins of rabbit plasma. Put plainly: cell-based or functional assay.
In turn, B1 gave an Inactivation in Plasma (t1/2 Relative to wt), Rabbit (x (relative to wt)) of 1.
Same read-out and setting: then B2, with 8.5; and B3, with over 20; and B4, with over 20.
On the same count and under the same terms, with B5 the figure was 8.5.
